According to patent publication US20050037969A1 (ARBOR VITA, published 2005):
Ends that are not written are not given here. * marks the point of attachment. Biotin = O=C1N[C@H]2[C@H](CS[C@H]2CCCCC(=O)*)N1

Assays:
[1] = target: T1, GST-PSD95 fusion protein (PDZ domains 1-3) (human, UniProt P31016 56-395 (rat entry)); experiment: G assay titration of biotinylated peptide on plate-bound GST-PDZ, apparent affinity from saturation fit
T1 construct: also called human post-synaptic density protein 95; not shown: glutathione S-transferase encoded by vector pGEX-3X (Pharmacia)
T1 sequence (P31016 other isoform, or with tags, fused parts or gaps): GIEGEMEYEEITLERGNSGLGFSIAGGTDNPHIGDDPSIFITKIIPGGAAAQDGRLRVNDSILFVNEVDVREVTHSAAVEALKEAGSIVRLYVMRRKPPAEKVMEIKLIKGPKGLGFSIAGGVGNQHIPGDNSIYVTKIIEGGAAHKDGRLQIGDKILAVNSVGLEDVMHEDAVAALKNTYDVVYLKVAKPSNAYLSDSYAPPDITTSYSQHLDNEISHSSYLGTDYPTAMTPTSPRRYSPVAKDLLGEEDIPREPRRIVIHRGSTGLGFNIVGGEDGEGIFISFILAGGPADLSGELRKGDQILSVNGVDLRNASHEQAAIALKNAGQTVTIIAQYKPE

[2] = target: T2, GST-41.8 kD protein (KIAA0751) PDZ domain fusion protein (Mus musculus (Mouse), UniProt Q9EQZ7 682-763); experiment: G assay: biotinylated peptide on plate-bound GST-PDZ fusion, streptavidin-HRP, OD 450 nm
T2 construct: also called 41 kd; hypoth; not shown: glutathione S-transferase encoded by vector pGEX-3X (Pharmacia)
T2 sequence: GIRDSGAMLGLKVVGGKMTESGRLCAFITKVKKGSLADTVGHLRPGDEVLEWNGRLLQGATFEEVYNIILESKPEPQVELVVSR

[3] = target: T3, GST-RGS12 PDZ domain fusion protein (human, UniProt O14924 17-85); experiment: A/G assays
T3 construct: also called human regulator of G-protein signalling 12; not shown: glutathione S-transferase encoded by vector pGEX-3X (Pharmacia)
T3 sequence: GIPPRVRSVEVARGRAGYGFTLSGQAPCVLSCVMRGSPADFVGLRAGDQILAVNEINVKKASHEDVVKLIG

[4] = target: T1, GST-PSD95 fusion protein (PDZ domains …); experiment: A/G assays
[5] = target: T4, GST-KIAA0303 PDZ domain fusion protein (Homo sapiens (Human), UniProt O15021 1138-1228); experiment: A/G plate assays, Table 2 matrix
T4 construct: also called K303; not shown: glutathione S-transferase encoded by vector pGEX-3X (Pharmacia)
T4 sequence: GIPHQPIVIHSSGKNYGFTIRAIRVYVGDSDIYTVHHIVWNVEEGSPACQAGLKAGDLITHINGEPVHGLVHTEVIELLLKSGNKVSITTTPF

[6] = target: T5, GST-TIAM1 PDZ domain fusion protein (Homo sapiens (Human), UniProt Q13009 845-931); experiment: A/G plate assays, Table 2 matrix
T5 construct: also called TLAM1; T-lymphoma invasion and metastasis inducing protein 1; not shown: glutathione S-transferase encoded by vector pGEX-3X (Pharmacia)
T5 sequence (Q13009 other isoform, or with tags, fused parts or gaps): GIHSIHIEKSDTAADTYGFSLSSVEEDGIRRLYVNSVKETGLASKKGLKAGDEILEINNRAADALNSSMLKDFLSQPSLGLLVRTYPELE

[7] = target: T6, KIAA0807 (PDZ domain)-GST fusion protein (human, UniProt Q6P0Q8 1104-1192); experiment: A/G plate assays, Table 2 matrix
T6 construct: also called K807; KIAA807; not shown: glutathione S-transferase encoded by vector pGEX-3X (Pharmacia)
T6 sequence: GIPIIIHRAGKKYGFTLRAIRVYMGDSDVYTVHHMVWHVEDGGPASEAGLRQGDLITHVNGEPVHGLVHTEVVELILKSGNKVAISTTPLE

[8] = target: T2, GST-41.8 kD protein (KIAA0751) PDZ …; experiment: A/G plate assays, Table 2 matrix
[9] = target: T2, GST-41.8 kD protein (KIAA0751) PDZ …; experiment: A/G assays
[10] = target: T3, GST-RGS12 PDZ domain fusion protein; experiment: A/G plate assays, Table 2 matrix
[11] = target: T7, GST-PTN-4 PDZ domain fusion protein (Homo sapiens (Human), UniProt P29074 517-605); experiment: A/G plate assays, Table 2 matrix
T7 construct: also called protein-tyrosine phosphatase meg1; not shown: glutathione S-transferase encoded by vector pGEX-3X (Pharmacia)
T7 sequence: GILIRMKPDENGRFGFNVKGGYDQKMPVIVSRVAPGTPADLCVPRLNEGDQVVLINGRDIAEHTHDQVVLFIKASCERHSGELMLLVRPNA

[12] = target: T1, GST-PSD95 fusion protein (PDZ domains …); experiment: G assay: biotinylated peptide on plate-bound GST-PDZ fusion, streptavidin-HRP, OD 450 nm
[13] = target: T8, GST-AF6 PDZ domain fusion protein (Homo sapiens (Human), UniProt P55196 1001-1093); experiment: A/G plate assays, Table 2 matrix
T8 construct: also called af-6 protein; not shown: glutathione S-transferase encoded by vector pGEX-3X (Pharmacia)
T8 sequence: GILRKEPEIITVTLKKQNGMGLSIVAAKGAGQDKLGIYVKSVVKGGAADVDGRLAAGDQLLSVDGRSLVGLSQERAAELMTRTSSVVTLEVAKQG

[14] = target: T1, GST-PSD95 fusion protein (PDZ domains …); experiment: A/G plate assays, Table 2 matrix
[15] = target: T6, KIAA0807 (PDZ domain)-GST fusion protein; experiment: G assay on KIAA0807:GST fusion protein, 10 uM labeled peptide
[16] = target: T9, GST-LIM protein PDZ domain fusion protein (Human, UniProt Q96HC4 2-85); experiment: A/G plate assays, Table 2 matrix
T9 construct: also called Human LIM protein; not shown: glutathione S-transferase encoded by vector pGEX-3X (Pharmacia)
T9 sequence: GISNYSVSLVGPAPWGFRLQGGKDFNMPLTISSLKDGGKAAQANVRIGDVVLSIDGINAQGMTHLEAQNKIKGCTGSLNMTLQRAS

[17] = target: T1, GST-PSD95 fusion protein (PDZ domains …); experiment: G assay: biotinylated peptide on plate-bound GST-PDZ fusion, OD 450 nm
[18] = target: T6, KIAA0807 (PDZ domain)-GST fusion protein; experiment: G assay on KIAA0807:GST fusion protein, 1 uM labeled peptide
[19] = target: T2, GST-41.8 kD protein (KIAA0751) PDZ …; experiment: G assay: biotinylated peptide on plate-bound GST-PDZ fusion, OD 450 nm; no GST-alone bar on the sheet

With Biotin-KDITSDSENSNFRNEIQSLV (also called CD95 (Apo-1/Fas); AAI3L) [CD95 (Fas) C-terminal peptide AA13L, biotinylated] the Kd [1] was 85 µM, the binding result [2] was “binds” and the binding result [3] was “no binding”.

Biotin-ARKANMKGSYSLVEAQKSKV (also called CD106) [VCAM1 C-terminal peptide AA17L, biotinylated]: no binding [3]; no binding [4]; binds [5]. Biotin-ARKANMKGSYSLVEAQKSKV (also called CD106) [VCAM1 C-terminal peptide AA17L, biotinylated]: binds [6]; binds [7]; binds [8].

Biotin-EVICYIEKPGVETLEDSVF [CDW125 (IL5R) C-terminal peptide AA28L, biotinylated]: no binding [9]; no binding [4]; binds [10]. Biotin-EVICYIEKPGVETLEDSVF [CDW125 (IL5R) C-terminal peptide AA28L, biotinylated]: binds [11].

Biotin-TTNNNPNSAVNIKKIFTDV [KV1.3 C-terminal peptide AA33L, biotinylated]: binds [12]; binds [10]; binds [7]. Biotin-TTNNNPNSAVNIKKIFTDV [KV1.3 C-terminal peptide AA33L, biotinylated]: binds [8].

For Biotin-ISGTPTSTMVHGMTSSSSVV [Clasp-2 C-terminal peptide AA2L, biotinylated], the Kd [1] was 45 µM and the binding result [3] was “no binding”.

B1: Spectrin (beta) C-terminal peptide AA32L, biotinylated (peptide)
peptide: Biotin-SFPPCGHRENVPGQSLVSFV
notes: Marked (S), sticky; also called Spectrin beta (S); Spectrin β
B1: no binding [3]; no binding [9]; binds [5]. B1: binds [13]; binds [11]; binds [7]. B1: binds [14].

Biotin-LASKSAEEGKQIPDSLSTDL [DOCK2 C-terminal peptide AA40L, biotinylated]: no binding [3]; no binding [9]; binds [15]. Biotin-LASKSAEEGKQIPDSLSTDL [DOCK2 C-terminal peptide AA40L, biotinylated]: binds [14].

Biotin-QGDPALQDAGDSSRKEYFI (also called GC) [Glycophorin C C-terminal peptide AA37L, biotinylated]: no binding [3]; binds [13]; binds [8]. Biotin-QGDPALQDAGDSSRKEYFI (also called GC) [Glycophorin C C-terminal peptide AA37L, biotinylated]: binds [14].

Biotin-STNHSIGSTQSTPCSTSSMA (also called CD105 (endoglin)) [CD105 C-terminal peptide AA16L, biotinylated]: no binding [3]; no binding [9]; no binding [4]. Biotin-STNHSIGSTQSTPCSTSSMA (also called CD105 (endoglin)) [CD105 C-terminal peptide AA16L, biotinylated]: binds [16].

Biotin-PSWRRSSLSESENATSLTTF (also called CXCR5) [BLR-1 C-terminal peptide AA45L, biotinylated]: no binding [17]; binds [18]; no binding [19]. Biotin-PSWRRSSLSESENATSLTTF (also called CXCR5) [BLR-1 C-terminal peptide AA45L, biotinylated]: no binding [3].

Biotin-TREDIYVNYPTFSRRPKTRV [DNAM-1 C-terminal peptide AA22L, biotinylated]: binds [12]; binds [13]; binds [10]. Biotin-TREDIYVNYPTFSRRPKTRV [DNAM-1 C-terminal peptide AA22L, biotinylated]: binds [8]; binds [16].

B2: CD138 C-terminal peptide AA18L, biotinylated (peptide)
peptide: Biotin-PKQANGGAYQKPTKQEEFYA
notes: also called CD138 (syndecan-1); CD138 (syndecan)
B2: no binding [17]; binds [2]; no binding [3]. B2: binds [6].
